Laboratory results: patent US20250319190A1, “APOE LIPOPROTEIN SYSTEMS” (Kisbee Therapeutics, Inc., priority 2022, published 2025)

B1: LPS1 lipoprotein system (PP9 with POPC, polypeptide:lipid 1:105) (other)
chain: KVEQAVETEPEPELRQQTEWQSGQRWELALGRFWDYLRWVQTLSEQVQEELLSSQVTQELRALMDETMKELKAYKSELEEQLTPVAEETRARLSKELQAAQARLGADMEDVCGRLVQYRGEVQAMLGQSTEELRVRLASHLRKLRKRLLRDADDLQKRLAVYQAGAREGAERGLSAIRERLGPLVEQGRVRAATVGSLAGQPLQERAQAWGERLRARMEEMGSRTRDRLDEVKEQVAAKLEEQAQQIRLQAEAFQARLKPLVEDMQRQWAGLVEKVQAAVGTSAAPVPSDNH
notes: Discoidal lipoprotein particle with POPC at 1:105 mol/mol; also called PP9/POPC
B2: LPS2 lipoprotein system (PP10 with POPC, polypeptide:lipid 1:100) (other)
chain: KVEQAVETEPEPELRQQTEWQSGQRWELALGRFWDYLRWVQTLSEQVQEELLSSQVTQELRALMDETMKELKAYKSELEEQLTPVAEETRARLSKELQAAQARLGADMEDVCGRLVQYRGEVQAMLGQSTEELRVRLASHLRKLRKRLLRDADDLQKRLAVYQAGAREGAERGLSAIRERLGDRLDEVKEQVAEVRAKLEEQAQQIRLQAEAFQARLKSWFEPLVEDMQRQWAGLVEKVQAAVGTSAAPVPSDNH
notes: Discoidal lipoprotein particle with POPC at 1:100 mol/mol; also called PP10/POPC
B3: LPS3 lipoprotein system (PP11 with POPC, polypeptide:lipid 1:90) (other)
chain: KVEQAVETEPEPELRQQTEWQSGQRWELALGRFWDYLRWVQTLSEQVQEELLSSQVTQELRALMDETMKELKAYKSELEEQLTPVAEETRARLSKELQAAQARLGADMEDVCGRLVQYRGEVQAMLGQSTEELRVRLASHLRKLRKRLLRDADDLQKRLAVYQAGAREGAERGLSAIRERLGDRLDEVKEQVAAKLEEQAQQIRLQAEAFQARLKPLVEDMQRQWAGLVEKVQAAVGTSAAPVPSDNH
notes: Discoidal lipoprotein particle with POPC at 1:90 mol/mol; also called PP11/POPC
B4: BDNF: brain-derived neurotrophic factor, a neurotherapeutic growth factor (protein, UniProt P23560 19-247, looked up)
Neurotrophic factor BDNF …: APMKEANIRGQGGLAYPGVRTHGTLESVNGPKAGSRGLTSLADTFEHVIEELLDEDQKVRPNEENNKDADLYTSRVMLSSQVPLEPPLLFLLEEYKNYLDAANMSMRVRRHSDPARRGELSVCDSISEWVTAADKKTAVDMSGGTVTVLEKVPVSKGQLKQYFYETKCNPMGYTKEGCRGIDKRHWNSQCRTTQSYVRALTMDSKKRIGWRFIRIDTSCVCTLTIKRGR
B5: PP125: novel truncated apolipoprotein variant SEQ ID NO: 877 (protein)
chain: KVEQAVETEPEPELRQQTEWQSGQRWELALGRFWDYLRWVQTLSEQVQEELLSSQVTQELRALMDETMKELKAYKSELEEQLTPVAEETRARLSKELQAAQARLGADMEDVCGRLVQYRGEVQAMLGQSTEELRVSLASHLRKLRKRLLRDADDLQKRLAVYQAGAREGAERGLSAIRERLGPLVEQGRVRAATVGSLAGQPLQERAQAWGERLRARMEEMGSRTRDRLDEVKEQEAAKLEEQAQQIRLQAEAFQARLKPLVEDMQRQWAGLVEKVQAAVGTSAAPVPSDNH
B6: PP124: novel truncated apolipoprotein variant SEQ ID NO: 876 (protein)
chain: KVEQAVETEPEPELRQQTEWQSGQRWELALGRFWDYLRWVQTLSEQVQEELLSSQVTQELRALMDETMKELKAYKSELEEQLTPVAEETRARLSKELQAAQARLGADMEDVCGRLVQYRGEVQAMLGQSTEELRVRLASHLRKLRKRLLRDADDLQKRLAVYQAGAREGAERGLSAIRERLGPLVEQGRVRAATVGSLAGQPLQERAQAWGERLRARMEEMGSRTRDRLDEVKEQEAAKLEEQAQQIRLQAEAFQARLKPLVEDMQRQWAGLVEKVQAAVGTSAAPVPSDNH
B7: PP129: novel truncated apolipoprotein variant SEQ ID NO: 881 (protein)
chain: KVEQAVETEPEPELRQQTEWQSGQRWELALGRFWDYLRWVQTLSEQVQEELLSSQVTQELRALMDETMKELKAYKSELEEQLTPVAEETRARLSKELQAAQARLGADMEDVCGRLVQYRGEVQAMLGQSTEELRVSLASHLRKLRKRLLRDADDLQKRLAVYQAGAREGAERGLSAIRERLGDRLDEVKEQEAAKLEEQAQQIRLQAEAFQARLKPLVEDMQRQWAGQVEKVQAAVGTSAAPVPSDNH
B8: PP127: novel truncated apolipoprotein variant SEQ ID NO: 879 (protein)
chain: KVEQAVETEPEPELRQQTEWQSGQRWELALGRFWDYLRWVQTLSEQVQEELLSSQVTQELRALMDETMKELKAYKSELEEQLTPVAEETRARLSKELQAAQARLGADMEDVCGRLVQYRGEVQAMLGQSTEELRVRLASHLRKLRKRLLRDADDLQKRLAVYQAGAREGAERGLSAIRERLGDRLDEVKEQEAAKLEEQAQQIRLQAEAFQARLKPLVEDMQRQWAGLVEKVQAAVGTSAAPVPSDNH
B9: PP128: novel truncated apolipoprotein variant SEQ ID NO: 880 (protein)
chain: KVEQAVETEPEPELRQQTEWQSGQRWELALGRFWDYLRWVQTLSEQVQEELLSSQVTQELRALMDETMKELKAYKSELEEQLTPVAEETRARLSKELQAAQARLGADMEDVCGRLVQYRGEVQAMLGQSTEELRVSLASHLRKLRKRLLRDADDLQKRLAVYQAGAREGAERGLSAIRERLGDRLDEVKEQEAAKLEEQAQQIRLQAEAFQARLKPLVEDMQRQWAGLVEKVQAAVGTSAAPVPSDNH
B10: PP126: novel truncated apolipoprotein variant SEQ ID NO: 878 (protein)
chain: KVEQAVETEPEPELRQQTEWQSGQRWELALGRFWDYLRWVQTLSEQVQEELLSSQVTQELRALMDETMKELKAYKSELEEQLTPVAEETRARLSKELQAAQARLGADMEDVCGRLVQYRGEVQAMLGQSTEELRVRLASHLRKLRKRLLRDADDLQKRLAVYQAGAREGAERGLSAIRERLGDRLDEVKEQVAAKLEEQAQQIRLQAEAFQARLKPLVEDMQRQWAGLVEKVQAAVGTSAAPVPSDNH
B11: LPS1: lipoprotein system of PP9 and POPC, apolipoprotein:lipid 1:105 (other)
chain: KVEQAVETEPEPELRQQTEWQSGQRWELALGRFWDYLRWVQTLSEQVQEELLSSQVTQELRALMDETMKELKAYKSELEEQLTPVAEETRARLSKELQAAQARLGADMEDVCGRLVQYRGEVQAMLGQSTEELRVRLASHLRKLRKRLLRDADDLQKRLAVYQAGAREGAERGLSAIRERLGPLVEQGRVRAATVGSLAGQPLQERAQAWGERLRARMEEMGSRTRDRLDEVKEQVAAKLEEQAQQIRLQAEAFQARLKPLVEDMQRQWAGLVEKVQAAVGTSAAPVPSDNH
notes: Discoidal lipoprotein particle with POPC; Engineered truncation variant of APOE3; also called PP9/POPC
B12: LPS2: lipoprotein system of PP10 and POPC, apolipoprotein:lipid 1:100 (other)
chain: KVEQAVETEPEPELRQQTEWQSGQRWELALGRFWDYLRWVQTLSEQVQEELLSSQVTQELRALMDETMKELKAYKSELEEQLTPVAEETRARLSKELQAAQARLGADMEDVCGRLVQYRGEVQAMLGQSTEELRVRLASHLRKLRKRLLRDADDLQKRLAVYQAGAREGAERGLSAIRERLGDRLDEVKEQVAEVRAKLEEQAQQIRLQAEAFQARLKSWFEPLVEDMQRQWAGLVEKVQAAVGTSAAPVPSDNH
notes: Discoidal lipoprotein particle with POPC; Engineered truncation variant of APOE3; also called PP10/POPC
B13: LPS3: lipoprotein system of PP11 and POPC, apolipoprotein:lipid 1:90 (other)
chain: KVEQAVETEPEPELRQQTEWQSGQRWELALGRFWDYLRWVQTLSEQVQEELLSSQVTQELRALMDETMKELKAYKSELEEQLTPVAEETRARLSKELQAAQARLGADMEDVCGRLVQYRGEVQAMLGQSTEELRVRLASHLRKLRKRLLRDADDLQKRLAVYQAGAREGAERGLSAIRERLGDRLDEVKEQVAAKLEEQAQQIRLQAEAFQARLKPLVEDMQRQWAGLVEKVQAAVGTSAAPVPSDNH
notes: Discoidal lipoprotein particle with POPC; Engineered truncation variant of APOE3; also called PP11/POPC

Biological target: T1, human low-density lipoprotein receptor (LDLR) protein (human, UniProt P01130 22-788, limits assumed)
T1 construct: The receptor was captured on a Protein A chip in the SPR assay
Assay: SPR (Biacore 4000), human LDLR captured on Protein A chip
Conditions: not given
Protocol: (§1) A surface plasmon resonance (SPR) method was developed to assess the binding response between the lipoprotein samples and the low-density lipoprotein receptor (LDLR). This interaction is relevant to the discs because the LDLR/APOE pathway plays a pivotal role in cholesterol homeostasis and lipid metabolism. Experiments were performed on a Biacore 4000 with human LDLR protein captured on a Protein A chip. For the binding studies, lipoprotein samples were diluted and tested in a 3-fold dilution series. Samples were injected for 2-3 minutes at 30 μL/min and the dissociation phase was monitored for 5-10 minutes. Response data were processed by subtracting the data from a reference surface (i.e., without receptor captured) and a buffer injection. The processed data were globally fit to a 1:1 interaction model to extract estimates of the binding constants.
T1 sequence (P01130 22-788 limits assumed): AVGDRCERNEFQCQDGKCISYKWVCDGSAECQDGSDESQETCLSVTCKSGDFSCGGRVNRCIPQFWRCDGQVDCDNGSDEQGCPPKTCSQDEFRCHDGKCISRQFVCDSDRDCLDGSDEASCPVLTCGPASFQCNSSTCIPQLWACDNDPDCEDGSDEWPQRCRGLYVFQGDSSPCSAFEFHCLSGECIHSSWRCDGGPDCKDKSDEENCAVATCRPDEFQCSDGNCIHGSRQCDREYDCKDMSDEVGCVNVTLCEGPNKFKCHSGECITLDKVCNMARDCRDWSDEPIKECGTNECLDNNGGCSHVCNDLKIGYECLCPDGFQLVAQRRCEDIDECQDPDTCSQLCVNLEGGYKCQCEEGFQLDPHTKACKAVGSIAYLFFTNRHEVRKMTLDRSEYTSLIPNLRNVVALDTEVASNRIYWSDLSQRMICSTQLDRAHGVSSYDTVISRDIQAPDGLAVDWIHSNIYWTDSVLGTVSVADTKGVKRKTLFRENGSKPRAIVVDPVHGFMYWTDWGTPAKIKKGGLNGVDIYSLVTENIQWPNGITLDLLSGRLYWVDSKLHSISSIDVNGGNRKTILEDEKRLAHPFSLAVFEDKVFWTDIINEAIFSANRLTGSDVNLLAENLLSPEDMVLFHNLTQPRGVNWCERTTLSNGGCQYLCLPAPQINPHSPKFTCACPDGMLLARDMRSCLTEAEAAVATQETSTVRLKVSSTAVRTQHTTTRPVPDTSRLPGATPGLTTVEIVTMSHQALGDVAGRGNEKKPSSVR

Row | Molecule | fold difference in KD compared to POPC lipoproteins with PP2 or PP28
1 | B1 | ≤ 5 fold
2 | B2 | ≤ 5 fold
3 | B3 | ≤ 5 fold

Tested on: experimental models of stroke, global brain ischemia, prion diseases, AD, PD, HD, ALS
Assay: not given
Conditions: intracerebral administration; cited from earlier work

Row | Molecule | neuroprotection
4 | B4 | neuroprotective

Tested on: not listed separately
Assay: DMPC liposome clearance by lipid-free apolipoproteins (A325)
Format: biochemical
Conditions: lipid-free apolipoprotein, protein:lipid 1:75, A325 over 90 minutes
Protocol: To assess the ability of lipid-free apolipoproteins to remodel DMPC liposomes, aliquots of purified polypeptide were allowed to thaw at 2-8° C. Aqueous 0.5 M tris(2-carboxyethyl)phosphine (TCEP) solution was then added to the polypeptide solution (1.5 μL per 200 μg polypeptide) to reduce any disulfide bonds that formed during storage. After incubation for >30 minutes at 2-8° C., the mixture was buffer exchanged into PBS (2 mM KH2PO4, 10 mM Na2HPO4, 140 mM NaCl, 3 mM KCl, pH 7.4) using a spin desalting column (ThermoFisher) following the manufacturer's instructions. After buffer exchange, the concentration of the polypeptide was determined by measuring the sample's absorbance at 280 nm (A280). In parallel, a mixture of DMPC (1,2-dimyristoyl-sn-glycero-3-phosphocholine) in detergent-free lipid buffer (20 mM Tris HCl, 100 mM NaCl, pH 7.4) was prepared from neat DMPC powder and adjusted to about 10 mM.
The polypeptide and DMPC solutions were combined in technical duplicate or triplicate in a UV-transparent 96-well plate (Corning) such that the molar ratio of protein:lipid was 1:75. The absorbance of the wells at 325 nm was measured every minute for 90 minutes.
Polypeptides PP124 (SEQ ID NO: 876), PP125 (SEQ ID NO: 877), PP126 (SEQ ID NO: 878), PP127 (SEQ ID NO: 879), PP128 (SEQ ID NO: 880), and PP129 (SEQ ID NO: 881) were expressed, harvested, and purified using the methods described herein (see, e.g., Example 1). The ability of these novel apolipoprotein variants to interact with and remodel DMPC liposomes was assessed to serve as a simplified proxy of the disc assembly process. The rate at which apolipoproteins achieve such remodeling is related to the facility with which they form the lipoprotein systems described in the present invention.

Row | Molecule | Rate of DMPC clearance Ka
5 | PP2: natural human APOE isoform APOE 3; SEQ ID NO: 268, 267 in b698 | 0.0145 s⁻¹
6 | PP1: natural human APOE isoform APOE2; SEQ ID NO: 267, 268 in b698 | 0.0032 s⁻¹
7 | B5 | 0.0247 s⁻¹
8 | B6 | 0.0221 s⁻¹
9 | B7 | 0.0068 s⁻¹
10 | B8 | 0.0058 s⁻¹
11 | B9 | 0.0149 s⁻¹
12 | B10 | 0.0383 s⁻¹

Biological target: human low-density lipoprotein receptor (LDLR) protein (human, UniProt P01130 22-788, limits assumed)
Assay: SPR (Biacore 4000), human LDLR captured on a Protein A chip, lipoprotein as analyte, 1:1 model fit
Conditions: not given
Protocol: as §1
Target sequence in this assay (P01130 22-788 limits assumed): as above

Row | Molecule | Kd
13 | B11 | ~0.33 nM
14 | B12 | ~0.385 nM
15 | B13 | ~0.125 nM
